Measurements published in patent EP4722248A1 (Shionogi & Co., Ltd, dated 2026).

Key:
human CCR8 [1] = biological target: T1, human CCR8 (human, UniProt P51685 1-355); test: cell-based or functional assay
human CCR8 [2] = biological target: T1, human CCR8; test: cell-based or functional assay; remark: listed apart in the source

T1 sequence (P51685 whole entry): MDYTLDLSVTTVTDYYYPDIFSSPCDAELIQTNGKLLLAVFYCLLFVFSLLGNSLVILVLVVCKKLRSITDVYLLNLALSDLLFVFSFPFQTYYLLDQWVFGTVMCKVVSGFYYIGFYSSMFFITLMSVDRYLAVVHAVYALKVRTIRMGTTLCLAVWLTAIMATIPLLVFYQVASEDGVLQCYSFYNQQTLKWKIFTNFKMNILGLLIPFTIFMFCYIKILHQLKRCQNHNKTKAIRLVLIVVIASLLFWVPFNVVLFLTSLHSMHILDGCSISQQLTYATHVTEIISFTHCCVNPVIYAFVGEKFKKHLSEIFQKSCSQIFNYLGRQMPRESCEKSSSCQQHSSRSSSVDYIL

| Binder | EC50 of killing rate; hCCR8/FLuc/Rat-1 target cells, activated PBMC effectors, E/T 3:1 (human CCR8 [1]) | EC50 of cytotoxic activity, luciferase; hCCR8/Fluc/Rat-1 target cells, mouse spleen-derived CD8-positive T cell effectors, antibody 10 pM-10 nM (human CCR8 [2]) |
| --- | --- | --- |
| B6-CD3-3 (bispecific antibody) EVQLVESDGGLVQPGRSLKLSCAASGFTFSDYYMAWVRQAPTKGLEWVATITYDVYSTYYRDSVKGRFTISRDNAKSTLYLQMDSLRSEDTATYYCARHGGDGYNSGNWFAYWGQGTLVTVSSGGGGSGGGGSGGGGSDIVLTQSPALAVSLGQRATISCRASQSVSISRYNIMHWYQQKPGQQPKLLIYRASNLASGIPARFSGSGSGTDFTLTINPVQADDIATYYCQQSRESPPTFGGGTKLELKRAANASEVQLVESGGGLVQPGGSLRLSCAASGFTFSTYAMNWVRQAPGKGLEWVGRIRSKYNNYATYYADSVKGRFTISRDDSKNTLYLQMNSLRAEDTAVYYCVRHGNFGDSYVSWFAYWGQGTLVTVSSGKPGSGKPGSGKPGSGKPGSQAVVTQEPSLTVSPGGTVTLTCGSSTGAVTTSNYANWVQQKPGKSPRGLIGGTNKRAPGVPARFSGSLLGGKAALTISGAQPEDEADYYCALWYSNHWVFGGGTKLTVLHHHHHH | 1.62 pM |  |
| B6-mCD3 (bispecific antibody) EVQLVESDGGLVQPGRSLKLSCAASGFTFSDYYMAWVRQAPTKGLEWVATITYDVYSTYYRDSVKGRFTISRDNAKSTLYLQMDSLRSEDTATYYCARHGGDGYNSGNWFAYWGQGTLVTVSSGGGGSGGGGSGGGGSDIVLTQSPALAVSLGQRATISCRASQSVSISRYNIMHWYQQKPGQQPKLLIYRASNLASGIPARFSGSGSGTDFTLTINPVQADDIATYYCQQSRESPPTFGGGTKLELKRAANASEVQLVESGGGLVQPGKSLKLSCEASGFTFSGYGMHWVRQAPGRGLESVAYITSSSINIKYADAVKGRFTVSRDNAKNLLFLQMNILKSEDTAMYYCARFDWDKNYWGQGTMVTVSSGGGGSGGGGSGGGGSDIQMTQSPSSLPASLGDRVTINCQASQDISNYLNWYQQKPGKAPKLLIYYTNKLADGVPSRFSGSGSGRDSSFTISSLESEDIGSYYCQQYYNYPWTFGPGTKLEIKHHHHHH |  | 62.3 pM |
